This series in a line: soluble on expression in E. coli; label from the status in PepcDB or PDB records.
With “MFMKYALFPGCKIAFERPDLELAMREVLTALDVPFEYLSDFSCCPTWASVPSFDIEAWLAISARNISLAEEKGLDIVVGCGDCYSVLNHARDMLKREEWRERVNRILAKVGRVYRGTTKIYHIIHLLEERKIKKNLKHRLNGFVAGVQPGCHLLWPAKIFDAKEENPFFPERLKKLVEAMGAETPHYSRLEYCCGNHIDIVDYEKFLDFVQLKLQSLKEEIDPDFIVTACSTCFIQLDEGQKRLKRLGRIDYEIPVFHFPQLLAICLGSNPEKVARISSVDRSKIISEILEGRE”, the “soluble on expression in E. coli” value is listed as “not soluble”.

As to “MDLRTANVTRYILPLREGGSLPALAEADDEFKYVVKFRGAGHGTKALIAELIGGEIARTLGFRVPEIIFLNLDEAFGRTEADEEIQDLLQWSRGLNIGLHFLSGALTFDPVVHQVDGKTASQIVWMDAFLTNVDRTIKNTNMLMWHKELWLIDHGASLYFQHSWTNWQKQALTPFVQIKDHVLLPFADQLKETDMAFRQLLTSDKIWEIVNTVPDDWLNWTEGQETPQDLRDIYIQFLEERIKHSELFVNEAQHARKALI”, the “soluble on expression in E. coli” value is recorded as “not soluble”.

Turning to “LAQPAMAMVGSRNATPQGLANADAFAEAASNAGFCIISGLAQGIDTAAHQGGLRGASSSMAIVGTGLDLVYPSRNHELAHKLANEGGLISEFPLGTPAISRNFPRRNRIISGMCHACLVVEATLYSGSLITARLALEQGREVMAIPGSIHSPLSKGCHALIKQGAKLVENIQDILDE”, the “soluble on expression in E. coli” value is on record as “not soluble”. The result for “MPEEMDKPLISLHLVDSDSSLAKVPDEAPKVGILGSGDFARSLATRLVGSGFKVVVGSRNPKRTARLFPSAAQVTFQEEAVSSPEVIFVAVFREHYSSLCSLSDQLAGKILVDVSNPTEQEHLQHRESNAEYLASLFPTCTVVKAFNVISAWTLQAGPRDGNRQVPICGDQPEAKRAVSEMALAMGFMPVDMGSLASAWEVEAMPLRLLPAWKVP” reads “soluble”. As for “MGSDKIHHHHHHMDFMTALDIGASALSAERTSMNITSMNLANAKTTRTIGGGPYRRKAVVMAATEVDDPFSKHMQSALDRELRGVRVQHIVRDNRPFRQVYEPGHPDADANGYVKYPDINVVEEMANLMTSQRGYQASVSTIEAVKSMYTKALEIGRS”, the entry is “not soluble”; as for “MQRCDWVSQDPLYIAYHDNEWGVPETDSRKLFEMICLEGQQAGLSWITVLKKRENYRACFHQFDPIRIAAMQEEDVERLLQNTGIIRHRGKIQAIISNARAWLAMEQNGESFADFVWSFVDGQPQITQAASLDKIPTSTPASDALAKALKKRGFKFVGTTICYSFMQACGLVNDHITGCFCHPG”, “soluble”; as for “TVEFRDLQGQRMIAVAENVASTPVVRDQLSDRSVERVLAPEVDRAVNLSGATLAEIVAPNGAVTVSSDPTRLGVPAELGASDVMTGRAWSGDVDVDGRRAIVGHVPILSATGDVLAVVTVSDDYPSVWDLLSSAG”, “not soluble”. As for “MDISSTEIWDAIRRNSYLLYYQPKVDAKTNKIIGFEGLVRLKTATTILAPIDFFDDIVLLNATREMQDFVAETAIKQINQLGGRFSISINIPAHYVASSTYMTFLHDYVKEHLKYPECLEIEIIERGEITELAIADKNLRKIKDLGVKVSMDDFGKGYSSLAYLRSLPIDIVKTDMSFIALLKTDRKQQIIIRAIVNLCHDLGGKVVTEGVEDMEQVEKLREMKVDYFQGYYFSRPLPMEEIKQKYSIV”, the entry is “soluble”; as for “MSLKYGGIIMKEILVIAPTKGTYEKSIHIVKKNKYKTIDVVFGNLKEGIPLAEKSINHGTRIIISRGGTYNMLKATYNIPIVEIKVDAYDIIKSYKEVKNSNEPFGIIGFNNVIYGFDIIEEILNKKITMIEIEKEEEIYDAIEKYRKKGINTYIGDTTVAHIVKRLNCKGILIESREENILRAIQQAEQILEATKDEQKRRLQIEAMTDFVHDGIITVDKNFKITLFNKSAEKIFGIKKENALYHNVVDVIPNTVLPQVVETMEPQIGEIQNIGSTKIITNRVPIIVDGQIQGAVSTFQDSKEISSFEHTIRRSLLSKGLSAEGHHHHHH”, “soluble”. Consider “MAFVLDASTAVAWCFDEHHPAADRTLELAKVSEPRAPAILWFELRNAALMGIRRGRVKAEAADGVLARIERIRISIAPLPPAADPIFALAQRHRLTFYDAAYLELAQRERIGLATLDAALVGA”, for which the “soluble on expression in E. coli” value is listed as “not soluble”. The result for “MGSDKIHHHHHHMEWIDRFIELLFYGEKEEAYKLKFDHFPRRLYKYEVIDEKRLLALKNNKIWFANPDKLNDPFDSCGVFFDKKVLCNYTNKKSIDEYIDGLKRNIKVCCFSEELNSMPMWAHYANNHTGICIEYDFSKLNYMSEFSKYIFPIRYETEKYDITKFLERIFKEEAEERMYLLFFLMQIKHVSWSYEKEWRIILKAYEDKNEGIVCPIKPEGIYLGLNCSEENKEKLKRIVVENIKCPIYEIEKTEGKLFEFKTKNVSEKNYK” reads “not soluble”; that for “GMSFENYFPLWNDLNTAQKKLISDNLITQHVKKGTIIHNGNMDCTGLLLVKSGQLRTYILSDEGREITLYRLFDMDMCLLSASCIMRSIQFEVTIEAEKDTDLWIIPAEIYKGIMKDSAPVANYTNELMATRFSDVMWLIEQIMWKSLDKRVASFLLEETSIEGTNELKITHETIANHLGSHREVITRMLRYFQVEGLVKLSRGKITILDSKRLETLQRS”, “soluble”. With “MTMEQLQTPPVVVEVCHTLDKKQLNAISKQVYETTLEAIERARRDSEVDSDLIYTRVGVRRFLDNCSEAYLDELIAKGLPTGRRLSDRKTCWSKHQLRSWLLENE”, the “soluble on expression in E. coli” value is reported as “not soluble”. As for “MSGLHILAFGAHADDVEIGMAGTIAKYTKQGYEVGICDLTEADLSSNGTIELRKEEAKVAARIMGVKTRLNLAMPDRGLYMKEEYIREIVKVIRTYKPKLVFAPYYEDRHPDHANCAKLVEEAIFSAGIRKYMPELSPHRVESFYNYMINGFHKPNFCIDISEYLSIKVEALEAYESQFSTGSDGVKTPLTEGYVETVIAREKMFGKEVGVLYAEGFMSKKPVLLHADLLGGCK”, the entry is “not soluble”.

“MPPCPPQQNRNRLSQLPVGELGEMELTWQEIMSITELQGLNVPSETSFEPQAPTPYPGPLPPPTYCPCSIHPDAGFSLPPPSYELPASTPHVPELPYSYGNVAIPVSKPLTLSGLLNEPLPDHLALLDIGLPVGQPKPQEDPESDSGLSLNYSDAESLELEGMEAGRRRSEYADMYPVEYPYSLMPNSLAHPNYTLPPTETPLALESSSGPVRAKPAVRGEAGSRDERRALAMKIPFPTDKIVNLPVDDFNELLAQYPLTESQLALVRDIRRRGKNKVAAQNCRKRKLETIVQLERELERLSSERERLLRARGEADRTLEVMRQQLAELYHDIFQHLRDESGNSYSPEEYVLQQAADGAIFLVPRGTKMEATD”: the “soluble on expression in E. coli” value is listed as “soluble”. The result for “MSLAEFFKDSKASLELRNFYMNKDFRDEVSSAANQQSKQDEWAQGFILKYESGYTEGPVGFGLDMLGLLGVKLDSGPGEAGTGLLPGGYNNRAPDDYSELGVTGKVRFSKTELKVGTLLPKNPVLVYNDTRLLPQTFQGGNLQIKEIEGLTLDFGYLDEVNYRNSTHNEEMSLVNANRRNITIKPGAENEANFFMYGGATYQVTKALTATYYYGELDDLYKQHAVNLVHVLPLGKSSLKTDLRYARSTDDGEAHVDNHAFGLLTTYAMGAHKFGLGLQKMQGDTGFAQINGTDPFLVNYIQVNDFGNADERSWQLRYDYDFAALGIPGLTFMTRYVSGDHVDRGPGSDGKEWERDMDIAYVFQSGMLKNLSLKWRNATMRSNFVRDVDENRLIVSYTLPLLEGHHHHHH” reads “not soluble”; that for “MDKEIKICPRCEQGYLYHAKPKYFSGEVILCDECYAMWLGDMKIFYGQYGKDFYDYHEFMKDKGIEEINMWEGELFDHPYYEDEKFK”, “not soluble”. The result for “MRIVVTRPQRSGERTAAKLEALGHAPVLLPLFHPIHHGERATSALSDPAGAIAVTSAEALRALATCEEQLAPYLSKPLFAVGGATAEAAQETGFEQIFTASGDALGLTVLVKQHRAFLTEEEPLLYLAGRPRGSVFEEGLAAAGIPFRTVDCYEMLPSDISENTLETTLLDTTADMVLLYSSEAARAFFHHVSADKYVTALAATKFICISRNVLFLVPEIFRANAKAAEEPSEAAMFELLHHNSGTLEHHHHHH” reads “soluble”.

Source of the values: the DeepSol protein solubility set.
